Experiment [1] addresses complement component C3b (obtained after hydrolysis of C3) (UniProt P01024). Description: biolayer interferometry. For orientation: In BLI a coated tip is dipped into the sample, and binding shifts an interference pattern.
Experiment [2] addresses T1, complement component C3b (obtained after hydrolysis of C3) (UniProt P01024 23-667; P01024 749-1663). Description: biolayer interferometry; B10 made recombinantly in E. coli.
The target in experiment [3] is T1, complement component C3b (obtained …). Description: biolayer interferometry; B10 made by full chemical synthesis.
For experiment [4] the target is unchanged. Description: biolayer interferometry (Octet RED96), GFP tagged Nanofitin captured by anti-GFP Nanofitin, C3b in solution, 1:1 fit.

This passage reports Kd, koff and kon results from patent EP4059949A1 (AFFILOGIC, dated 2022).

T1 sequence (P01024 23-667 limits assumed, chain 1 of 2): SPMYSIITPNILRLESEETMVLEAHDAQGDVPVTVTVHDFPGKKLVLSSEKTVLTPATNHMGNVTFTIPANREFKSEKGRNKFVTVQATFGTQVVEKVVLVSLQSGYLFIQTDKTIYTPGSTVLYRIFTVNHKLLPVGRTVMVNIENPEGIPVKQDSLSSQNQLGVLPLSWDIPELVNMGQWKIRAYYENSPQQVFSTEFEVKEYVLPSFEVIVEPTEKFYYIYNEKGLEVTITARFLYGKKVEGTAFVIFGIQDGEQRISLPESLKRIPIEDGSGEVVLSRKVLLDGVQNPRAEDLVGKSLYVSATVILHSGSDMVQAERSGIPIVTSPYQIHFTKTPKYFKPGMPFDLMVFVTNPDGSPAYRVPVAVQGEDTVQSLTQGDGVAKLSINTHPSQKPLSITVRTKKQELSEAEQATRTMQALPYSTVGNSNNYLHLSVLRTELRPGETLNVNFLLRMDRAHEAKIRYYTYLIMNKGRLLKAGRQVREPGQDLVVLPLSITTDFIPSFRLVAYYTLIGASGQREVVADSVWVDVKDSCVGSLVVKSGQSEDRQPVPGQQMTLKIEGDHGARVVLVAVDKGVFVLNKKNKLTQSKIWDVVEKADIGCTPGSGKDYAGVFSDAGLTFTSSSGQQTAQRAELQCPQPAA
T1 sequence (P01024 749-1663 limits assumed, chain 2 of 2): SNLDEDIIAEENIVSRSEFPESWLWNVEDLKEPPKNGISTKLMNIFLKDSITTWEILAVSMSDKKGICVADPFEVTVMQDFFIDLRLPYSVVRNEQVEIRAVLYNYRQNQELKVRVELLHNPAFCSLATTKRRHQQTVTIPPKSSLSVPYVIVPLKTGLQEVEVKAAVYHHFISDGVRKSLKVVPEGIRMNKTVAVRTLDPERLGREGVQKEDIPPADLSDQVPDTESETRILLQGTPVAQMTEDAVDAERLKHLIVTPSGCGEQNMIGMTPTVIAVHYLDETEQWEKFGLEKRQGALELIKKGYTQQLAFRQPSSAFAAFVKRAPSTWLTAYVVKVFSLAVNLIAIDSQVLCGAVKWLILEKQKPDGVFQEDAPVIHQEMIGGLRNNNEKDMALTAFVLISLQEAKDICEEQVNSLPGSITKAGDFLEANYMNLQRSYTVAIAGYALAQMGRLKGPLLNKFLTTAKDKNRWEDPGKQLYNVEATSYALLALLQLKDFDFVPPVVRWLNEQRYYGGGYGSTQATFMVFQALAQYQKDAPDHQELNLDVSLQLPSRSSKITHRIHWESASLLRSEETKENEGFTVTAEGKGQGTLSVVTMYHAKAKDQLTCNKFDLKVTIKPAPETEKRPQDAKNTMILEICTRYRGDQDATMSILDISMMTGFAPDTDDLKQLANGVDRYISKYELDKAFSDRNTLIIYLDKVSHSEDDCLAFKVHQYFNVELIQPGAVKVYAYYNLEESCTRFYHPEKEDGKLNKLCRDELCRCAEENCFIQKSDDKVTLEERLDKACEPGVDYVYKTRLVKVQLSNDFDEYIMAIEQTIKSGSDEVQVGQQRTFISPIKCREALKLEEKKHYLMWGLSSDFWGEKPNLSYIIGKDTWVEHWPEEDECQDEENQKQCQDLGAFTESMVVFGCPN
complement component C3b (obtained after hydrolysis of C3) (UniProt P01024), sequence (P01024 23-667 limits assumed, chain 1 of 2): as the sequence (P01024 23-667 limits assumed, chain 1 of 2) above
complement component C3b (obtained after hydrolysis of C3) (UniProt P01024), sequence (P01024 749-1663 limits assumed, chain 2 of 2): as the sequence (P01024 749-1663 limits assumed, chain 2 of 2) above

B1: anti-C3 Nanofitin B10 with N-terminal peptide (10-mers) and C-terminal 30 kDa protein (designed binder, part only; not given: peptide tag and 30 kDa protein, not shown: small tags and cut ends)
chain, part: MVKVKFDATGEEKEVDTSKISAVYRTGKDVLFSYDDNGKIGWGYVSEKDAPKELLDLLARAERE
One may read the Kd as the free concentration of one partner at which half of the binding sites on the other are occupied at equilibrium, for simple one-to-one binding. Turning to B1, the Kd in experiment [1] was 7.3 nM.

B2: anti-C3 Nanofitin B10 without N- or C-terminal tag (designed binder)
chain: MVKVKFDATGEEKEVDTSKISAVYRTGKDVLFSYDDNGKIGWGYVSEKDAPKELLDLLARAERE
notes: also called Nter tag none, Cter tag none
Consider B2, for which the Kd in experiment [2] stood at 18.5 nM; in experiment [3], 18 nM.

B3: anti-C3 Nanofitin B10 with N-terminal 48 kDa protein (designed binder, part only; not given: 48 kDa fusion protein, part only)
chain, part: MVKVKFDATGEEKEVDTSKISAVYRTGKDVLFSYDDNGKIGWGYVSEKDAPKELLDLLARAERE
With B3, in experiment [1], the Kd is 6.7 nM.

B4: B10 (SEQ ID NO: 25), GFP tagged Nanofitin (designed binder)
chain: MVKVKFDATGEEKEVDTSKISAVYRTGKDVLFSYDDNGKIGWGYVSEKDAPKELLDLLARAERE
notes: Variant of Nf1 from off-rate selection; not shown: GFP tag
In general, koff refers to a measure of how fast the partners let go of each other. A higher koff goes with fast dissociation. As usually defined, the kon is the second-order rate constant of association. In experiment [4], B4 had a Kd of 7.31 nM, a koff of 0.000433 s⁻¹ and a kon of 59200 M⁻¹ s⁻¹.

B5: H03 (SEQ ID NO: 26), GFP tagged Nanofitin (designed binder)
chain: MVKVKFAATGEEKEVDTSKIANVYRVGKDVLFSYDDNGKIGWGYVSEKDAPKELLDLLARAERE
notes: as for B4
As for B5, in experiment [4], the dissociation constant Kd stood at 2.89 nM, the koff stood at 0.000188 s⁻¹ and the kon worked out at 65200 M⁻¹ s⁻¹.
